In the nanobody polyreactivity screen of Harvey et al. (2022):

Assay: yeast display, Sf9 membrane polyspecificity reagent, FACS + sequencing; frameworks hold sequencing errors
Summary of the method: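 Synthetic nanobody libraries on Saccharomyces cerevisiae BJ5465 were galactose-induced for 36–48 hours, stained 1 hour at 4 °C with 10% biotinylated, detergent-solubilized Sf9 membrane reagent and enriched on streptavidin microbeads. FACS then separated cells into low and high (top ~1%) gates by anti-HA (expression) and streptavidin (reagent binding) fluorescence. Genes were colony-PCR amplified, MiSeq 2 × 250 sequenced and CDR-length filtered. A clone's polyreactivity label is that of its gate of origin.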

| Sequence | polyreactivity (PSR sort gate) |
| --- | --- |
| QVQLVESGGGLVQAGGSLRLSCAASGRIFRRNTMGWSRPAPGTERELVAAITSRGGSTYYADSVKGRFTISRDNAKNTVYLQMNSLKPADTAVYYCNTRVVPEIYDYWGQGTQVTVSS | high polyreactivity |
| QVQLVESGRGLVQAGGSLRLSCAASASTFTLNTMGWYREAAGKERELVAAITASGGRTFYADSVKGPFTISRDNANNTVYLQMTSLKPEDTAFYYCAKRPYGWVSRYDYWGQVTQVTVSS | low polyreactivity |
| QVQLVESGGALVQAGGSLRLICAASGSIFGYNAMGWYRPSPGKEREFVASIRDRGGSTYYADSVKGRFTISRDNAKNTLYFQMKSLKQEDTAVYYGDAYWWGVSKRQYGYWGQGTQVTVSS | high polyreactivity |
| QVQLVESGGGLVQAGGSLRLSCAASGITFSVYAMGWYRQAPRKERELVASISSGGTSTYYADSVKGRFTISRDNAKNTVYLQMNSLKPEDTPVYYCAAYSYYTRDPYSYDYWGQGTQVTVSS | low polyreactivity |
| QVQLVESGGGLVQAGGSLRLSCAASGSTFVSYAMGWYRQAPGKESELVAGISWSGTRTYYADSVKGRFTISRDNAKNTVYLQMNSLKPEDTAVYYCAARDSSYNWYGYWGQGTQVTVSS | high polyreactivity |
| QVQLVESGGGLVQAGGSLRLSCAASGSIFRINAMGWYRQAPGKERELVAAISWSGGSTYYADSVKGRFTISRDNAKNTVYVQMNSLKPEDTAVYYCAAVVSKSSFDYWGQGTQVTVSS | low polyreactivity |
| QVQLVESGGGLVQAGGSLRLSCAASGFTFRFYAMGWYRQAPGKERELVAAISSSSSSTYYADSVKGRFTISRDNAKNTVYLQMNSLKPEDTAVYYCNAGGYTRGDYWGQGTQVTVSS | high polyreactivity |
| QVQLEESGGGLVQAGCSLRLSCADSGITFGGNAMGWYRQAPGKERDLVAAIDEGGGSTYYADTVKGRFTLSRDNAKNTVYLQMHSLKPEPTAVDYCAADFGYYGYYYWGQGTQVTVST | low polyreactivity |
| QVQLVESGGGLVQAGGSLRLSCAASGRIFYYNDMGWYRQAPGKERELVATITIGNSTNYADSVKGRFTISRDNAKNTVYLQMKSLKPEDTAVYYCNADYSDVTTGDWRYENDYWGQGTQVTVSS | low polyreactivity |
| QVQLVESGGGLVQAGGSLRLSCAASGLTFGNYAMGWYRQTPGKERELVAAISKRGGTTYYADSVKGRFTISRDTAKNTVYLQMNSLKPEDTAVYYCSARDYSHPTDDNYWGPGTQVTVSS | high polyreactivity |
| QVQLVESGGGLVQAGGSLRLSCAASGFIFLKYAMGWYRQAPGKERELVASITSTGGSTYYADSVKGRFTISRDNAKNTVYLQMNSQKPEDTAVYYCARDTVPSSDPWYYAWGGFEFDYWGQGTQVTVSS | low polyreactivity |
| QDQLVDSGGGLVQAGGSLRFSCAASGFIFRFNAMGWYRQAPGKERELVADIRWSSGSTYYADSVKGRYTISRDNAKNTVYLEMNSLKPEDTAVFYCAVTYLRVHYKFTPFDYWGQGTQVTVSS | low polyreactivity |
| QGQLVESGGGLVQAGGSLRLTCAASGFIFDNYAMGWYRHAPGKERELVADISWGGGSTYYADSVKGRFTISRDNAKNTVYLQMNSLTPEDTAVYYCDAQYSYRMDYWGQGTQVTVSS | low polyreactivity |
| QVQLVESGGGLVQAGGSLRLSCAASGRTFYANTMGWYRQAPGKERELVAAITVRGGTTFYADSVKGRFTISRDNAKNTVYLQMNSLKPEDTAVYYCAAYGYRYSHEYYYWGQGTQVTVSS | high polyreactivity |
| QVQLVESGVGLVQAGGSLRLSCAASGSTFGTYDMGWFRQAPGKERELVAAITWIGDTTYYADSVKGRFTISRDNAKNTVYLQMNSLIPEDTAVYYCAAEPNYQYYGPLGYDYWGQGTQVTVSS | low polyreactivity |
| QVQLVESGGGLVQAGGSLRLSCAASGRIFPYYAMGWYRQAPGKVRELVASIRYSAGNTYYADSVKGRFTISRDNAKNTVYLQMNSLKPEDTAVYYCWYTQNTLGNYWGQGTQVTVSS | low polyreactivity |
| QVQIVESGGGLVQAGGSLSLSCAASGRTFQRNAMGWYRQAPGKERELVAAITTGSRTYYADSVKGRFTISRDNAKNTVYLQMNSLKPEDTAVYYCAAVATRRDYGYWGQGTQVTVLS | high polyreactivity |
| QVQLVESGGGLVQAGGSLRLSCAASGRISWVYAKGWYRQPPGKERELVAAITFSGGSTYYADSVKGRFTISSDNEKNTVYLQMNSLKPEDTAVYYCAADVLAIYSHRYYRYDSWGQGTQVTVSS | high polyreactivity |
| QVQLVESGGGLVQAGGSLRSSCAASGSLFTSNTMGWHRQAPGKERELVAAITSSGGSMFYADSVKGRFTISRDNAKNTVYLQMNSLKPEDNAVYYCAADTIGYHDWYDYWGQGTQVTVSS | low polyreactivity |
| QVQLVESGGGLVQAGGSLRLSCAASGRIFGWYAMGWYRQAPGKERELVAAISRGGTTYYADSVKGRFTISRDNAKNTVYLQMNSLKPEDTAVYYCAAPVPYYVPRRNEGDYWGQGTQVTVSS | low polyreactivity |
| QVQLVASGGRLVQAGGSLRLSCASSGSIFGWYAMGWYRQAPGKERELVAVITSGGSTYYADSVKGRFTISRDNAKNTVYLQMNSLKPVDTAVYYCNARYHAGYKGYNYWGQGTQVTVSS | high polyreactivity |
| QVQLVESGGGLVQAGGSLRLSCAASGYTFGYYTMGWYRQAPGKERELVASIDSGGGTYYADSVKGRFTISRDNAKNTVYLQMNSLKPEDTAVYYCAARSAILKSGYLMDYWGQGTQVTVSS | low polyreactivity |

| Sequence | polyreactivity (PSR sort gate) |
| --- | --- |
| QVQLVESGGGLVQAGGSLRLSCAASGFIFYPYAMGWYRQAPGKERELVAVITSGGRTYYADSVKGRFTISRDNAKNTVYLQMYSLKPEDTAVYYCNADTFQWWDIADVYVIVKYGYWGQGTQVTVSS | low polyreactivity |
| QVLLVESGGGLVQAGGSLRLSCAASGLTFVYVMGWYRQAPGKERELVAGISYSAGRTYYADSVKGRFTISRDNAKNTVYLQMNSLKPEDTAVYYCAATKRGRPQRGYWGQGTQVTVSS | high polyreactivity |
| QVQLVESGGGLVQAGGSLRLSCAASGRIFKYYAMGWYRPAPWKKRELVATISVSGGRTYYADSVKGRFTISRDNAKNTVYLQMNSLKPEDTAVYYCAAYSVIRRRVEYGYWGQGTQVTVSS | high polyreactivity |
| QVQLVESGGGLVQAGGSLRLSCAASGSIFGLNAMGWYRQAPGKERELVAAIDIIGGSTYYADSVKGRFTISRDNAKNTVYLQMNSLKPEDTAVYYCAAEADFWRFVEYDYWGQGSQVTVSS | low polyreactivity |
| QVQLVESGGGLVQAGGSLRLSCAASGFIFRKYAMGWYRQAPGKERELVAAITASGGSTYYGDSVKGRFTISRDNAKNTVYLQLNSLKPEDTAVYYCATDFHGAERWLKYVYWGQGTQVTVSS | high polyreactivity |
| QVQLVESGGGLVQAGGSLRLSCAASGFIFYTNAMGWYRQAPGKERELVAAISRGGTTYYADSVKGRFTISRDNAKNTVYLQMNSLKPEDTAVYYCAKAWPDHWYSRYDYWGQGTQVTVSS | low polyreactivity |
| QVQLVESGGGLLQAGGSLRLSCAASVSIFEYYPMGWYRPAPGKERELVADITWSGGSTYYADSVKGRFTISRDNAKNTVDLQMNSLKPEDSAVYYCAKGYYVYGIFHRFGYYWGQGTQVTVSS | high polyreactivity |
| QVQLVESGGGLVQAGGSLRLSCAASGSTFEWYAMGGYRQAPGKEREFVASISWSGGRTYYADSVKGRFTISRDNAKNTVYLQMNSLKPEDTAVYYCAAVAVPLQVPSGRAASKRRYGYWGQGTQVTVSS | high polyreactivity |
| QVQLVESGGGLVQAGGSLRLSCAASGSIFSSYAMGWYRQAPGKERELVAAISTAGSTNYADSVKGRFTISRDNAKNTVYLQINSLKPEDTAVYYCAADSGDQQSYGLDLNHDFDYWGQGSQVTVSS | low polyreactivity |
| QVQLVESGGGLVQAGGSLRLICAASGRIFDSYTMGWYRQAPGKERELVAAISRGGGSTYYADSVKGRFTISRDNAKNTVYLQMNSLKPEDTAVFYCAASSYLNSRFKFDYWGQGTQVTVSS | low polyreactivity |
| QVQLVESGGGLVQAGGSLRLSCAASGITFVLYAMGWYRQAPGKERELVAAITWRGGSTYYADSVKGRFTISRDNAKNTVYLQMNSLKPEDTAVYYCAAVPFTSYRQGDYWGQGTQVTVSS | low polyreactivity |
| QVQLVESGGGLVQAGGSLRLSCAASGRTFDIYAMGWYRQAPGKERELVAAISSGGSTYYADSVKGRFTISRDNAKNTVYLQMNSLKPEDTAVYYCAVRWYDQVSRRGIGYYWGQGTQVTVSS | low polyreactivity |
| QVQLVESGGGLVQAGVSLRLSCAASGFTFAYYAMGWYRQAPGKERELVAAITSGGRTNYADSVKGRFTISRDNAKNTGYLQMISLKAEDTAVSYCAKYRRGGSRHYSVFNHDYWGLGTQVTVSS | high polyreactivity |
| QVQLVESGGGLVQAGGSLSLSCAASGFTFPLYAMGWYRPAPGKERELVASISKSGGRTYYADSVKGRFTISRDNAKNTVYLQMNSLKPEDTAVYYCATLPRYYGYWGQGTQVTVSS | high polyreactivity |
| QVQLVESVGGLVQAGGSLRLSCAASGFIFKRYAMGWYRQAPGKERELVAAITGSGGSTYYADSVKGRFTISRDNAKNTVYLQMNSLKPEDTAVYYCARGNGGSLDYWGQGTQVTVSS | high polyreactivity |
| QVQLVESGGGIVQAGGSLRLSCAASGLTFSIYPIGWYRQAPGKERELVAAISWSGGSTYYADSVKGRFTISRDNAKNTVYLQMNSLKPEDTAVYYCAARVYRPWWSYDYWGQGTQVTVSS | high polyreactivity |
| QVQLVESGGGLVQAGGSLRLSCAASGSIFGRYTMGWYRQAPGKERELVAAISWGGGSTYYADSVKGRFTISRDNAKNTVYLQMNSLKREDTAVYYCDADTYWAIDPIYDYWGQGTQVTVSS | low polyreactivity |
| QVQLVESGGGLVQAGGSLRLSCAASGSIFTYNAMGWYRQAPGKERELVAAIRLSGGSTYYADSVKGRFTISRDNAKNTVYLQMNSLKPEDTAVYYCATEYDYGSWYPDGWGIFDYWGQGTQVTVSS | low polyreactivity |
| QVQLVESGGGLVQAGGSLRLSCAASGSIFNYYAMGWYRQAPGKEREFVADISGSGSSTYYADSVKGRFTISRDNAKNTVYLQMNSLKPEDTAVYYCNAEYYWGVGYYPYSDYGYWGQGTQVTVSS | low polyreactivity |
| QVQLVESGGGLVQAGGSLRLSCAASGRTLQTYVMGWYRQAPGKERELVAAITRGGGSTYYADSVKGRFTISRDNGKNTVFLQMNSLKPVDTSVYYCAASALRFNSRFSHWYIYWGQGTQVTVSS | high polyreactivity |
| QVQLVESGGGLVQAGGSLRLRCAASGSTFTSYTMGWYRQAPGKERELVARITRGGGSTYYADSVKGRFTISRDNAKNTVYLQMNSLKPEDTAVYYCAKQVVGRAYYSWGQGTQVTVSS | low polyreactivity |
